Patent US20170247440A1 (Hoffmann-La Roche, published 2017)

How the values were obtained:
[1] = biological target: T1, human PDGF-BB (human, UniProt P01127 82-190); test: cell-based or functional assay
[2] = biological target: T1, human PDGF-BB; test: inhibition ELISA: biotinylated huPDGF-BB binding to immobilized Fc-tagged huPDGF-Rβ (Example 15)
Method: The protein-protein interaction inhibition analysis of human PDGF-BB to the human PDGF-BB receptor was carried out using an enzyme-linked immunosorbent assay (ELISA)-based technology. The human Fc-tagged PDGF-BB receptor protein (RnD, Cat. No. 385-PR-100) was immobilized at a concentration of […] in 25 μL in PBS, 0.5% BSA and 0.05% Tween on a 384 well microtiter plate (Thermo Scientific Cat. No. 464718). Every of the following steps was followed by a washing routine of 3 times 90 μL PBS with dispense and aspiration: 1) blocking step saturating unbound surface (1 hour, 2% BSA); 2) 15 μL anti-PDGF-BB antibody in increasing concentrations was incubated with 15 μL biotinylated human PDGF-BB (Cell Signaling, Cat. No. 8921BF) at 75 nM in a volume of 30 μL for 1 hour; 3) detection was achieved using peroxidase-labeled streptavidin (Roche Diagnostics GmbH, Mannheim, Germany, Cat. No. 11089153001). 20-30 min. after adding the substrate 3,3′,5,5′-tetramethylbenzidine (TMB, Piercenet, Cat. No. 34021) the optical density was determined at 370 nm. The IC₅₀ was calculated with a four parameter logistic model using GraphPad Prism 6.0 software.

[3] = biological target: rat PDGF-BB (rat, UniProt Q05028 74-182); test: ELISA, immobilized rat PDGF-BB (Example 12)
rat PDGF-BB, sequence (Q05028 74-182): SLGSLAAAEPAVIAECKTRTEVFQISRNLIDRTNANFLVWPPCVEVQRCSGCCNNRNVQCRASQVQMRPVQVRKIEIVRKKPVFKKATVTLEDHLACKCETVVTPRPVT
Method: The binding analysis was carried out using an enzyme-linked immunosorbent assay (ELISA)-based technology. The antigen rat PDGF-BB (R&D, 520-BB) was immobilized at a concentration of 125 ng/mL in 25 μL in PBS, 0.5% BSA and 0.05% Tween on a 384 well microtiter plate (Thermo Scientific, Cat. No. 464718). Every of the following steps was followed by a washing routine of 3 times 90 μL PBS, 0.5% BSA, 0.05 Tween with dispense and aspiration: 1) blocking step: saturating unbound surface (1 hour, 2% BSA); 2) anti-PDGF-BB antibody in increasing concentrations for 1 hour; 3) detection antibody, dilution=1:3000 (ECL anti-rabbit IgG-POD, NA9340V+ECL anti-human IgG-POD, NA933V or alternatively for murine antibodies ECL anti-mouse IgG-POD; NA 9310V). 20-30 min. after adding the substrate 3,3′,5,5′-tetramethylbenzidine (TMB, Piercenet, Cat. No. 34021) the optical density was determined at 370 nm. The EC₅₀ was calculated with a four parameter logistic model using GraphPad Prism 6.0 software.

[4] = biological target: T1, human PDGF-BB; test: SPR kinetic screening, IgG on immobilized human PDGF-BB (Example 27)
Method: Binding of anti-PDGF-BB antibodies to human PDGF-BB was investigated by surface plasmon resonance using a BIACORE T200 instrument (GE Healthcare). Around 20 resonance units (RU) of recombinant human PDGF-BB (5 μg/ml; ordering code 220-BB; R&D Systems) were coupled on a Series S C1 chip (GE Healthcare BR-1005-35) at pH 4.0 by using an amine coupling kit supplied by GE Healthcare. Running buffer for immobilization was HBS-N pH 7.4 (10 mM HEPES, 150 mM NaCl, pH 7.4, GE Healthcare). For the following kinetic characterization, running and dilution buffer was HBS-P pH 7.4 (10 mM HEPES, 150 mM NaCl, 0.05% Surfactant P20, pH 7.4, GE Healthcare). The flow cell was set to 25° C.—and the sample block set to 12° C.—and primed with running buffer twice.

[5] = biological target: T2, cynomolgus PDGF-BB (cynomolgus, UniProt A0A2K5UX81 82-190, Disulfide-linked homodimer of two identical B chains; one copy is given.); test: ELISA, cynomolgus PDGF-BB (Example 10)
T2 construct: also called cynPDGF-BB
T2 sequence (A0A2K5UX81 entry or part of it limits assumed): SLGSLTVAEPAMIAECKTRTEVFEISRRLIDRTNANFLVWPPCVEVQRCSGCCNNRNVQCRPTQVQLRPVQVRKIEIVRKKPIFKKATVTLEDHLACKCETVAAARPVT

[6] = biological target: T1, human PDGF-BB; test: SPR, IgG
[7] = biological target: T1, human PDGF-BB; test: SPR, IgG, apparent KD (App. KD**)
[8] = biological target: T1, human PDGF-BB; test: SPR, apparent KD (avidity), IgG on immobilized human PDGF-BB (Example 17)
Method: The binding analysis was carried out using a surface plasmon resonance spectroscopy-based technology applying a BIAcore B4000 system (GE Healthcare). The antigen human PDGF-BB (Cell Signaling, Cat. No. 8921BF) was immobilized at a concentration of 1 μg/mL in PBS, 0.1% BSA, 0.05 Tween using amine coupling chemistry on a C1 sensor chip (GE Healthcare, Cat. No. BR-1005-35). Anti-PDGF-BB antibody in increasing concentrations was applied in 10 mM HEPES pH 7.2, 150 mM NaCl. Utilizing a read out time of 180 sec. association phase and 600 sec. dissociation phase the apparent kₐ and apparent kd were calculated. The apparent KD (avidity) was calculated using the BIAcore T200 v2.0 fitting software.

T1 sequence (P01127 82-190 limits assumed): as the sequence (A0A2K5UX81 entry or part of it limits assumed) above, with V7I counted along it

B1: antibody 0058 (antibody, V domains shown)
VH: EVQLVESGGGLVQPGGSLRLSCAASGFTFSSFWMTWVRQAPGKGLEWVASISAGGGITHYPDSVKDRFTVSRDNAKNSLYLQLNSLRAEDTAVYYCAESGGDIYSDFDYWGQGTLVTVSS
VL: not shown
notes: Human antibody from a human Ig locus transgenic rabbit; IgG
Q: With B1 as the binder, how does the “Balb-C3T3 Proliferation % neutralization” value [1] read?
A: The value was 100%.

Q: And the “Balb-C3T3 Proliferation IC50” value [1]?
A: The value was 0.24 nM.

Q: What about the “Pericytes Migration % neutralization” value [1] of the same binder?
A: The value was 100%.

Q: And the “Pericytes Migration IC50” value [1]?
A: Its value is 0.002 nM.

Q: And the “Pericytes Proliferation % neutralization” value [1]?
A: The value was 100%.

Q: What about the “Pericytes Proliferation IC50” value [1] of the same binder?
A: Its value is 0.08 nM.

Q: And the IC50 [2]?
A: The IC50 was 0.0425 mg/L.

Q: And the EC50 [3]?
A: Its EC50 is 0.0966 mg/L.

Q: What about the koff [4] of the same binder?
A: The koff was 0.000291 s⁻¹.

Q: What about the t½ [4] of the same binder?
A: The t½ was 0.667 h.

Q: What about the EC50 [5] of the same binder?
A: Its EC50 is 0.0034 mg/L.

Q: What about the T½ [6] of the same binder?
A: Its T½ is 1.42 h.

Q: And the Kd [7]?
A: Its Kd is 0.046 nM.

Q: And the Kd [8]?
A: Its Kd is 0.062 nM.

B2: antibody 0060 (antibody, V domains shown)
VH: EVQLLESGGDLVQPGGSLRLSCAASGFTFRSYAMSWVRQAPGKGLEWVSGISAGGGYIYYADSVTGRFTSSRDNYKNTLYLQMNRLRVEDTAVYYCARFYPGYNSDTYYYDGMDVWGQGTTVTVSS
VL: not shown
notes: as for B1
Q: Which “Balb-C3T3 Proliferation % neutralization” value [1] does the source give for B2 here?
A: The value was 90%.

Q: And the “Balb-C3T3 Proliferation IC50” value [1]?
A: Its value is 0.29 nM.

Q: What about the “Pericytes Migration % neutralization” value [1] of the same binder?
A: Its value is 100%.

Q: What about the “Pericytes Migration IC50” value [1] of the same binder?
A: The value was 0.013 nM.

Q: And the “Pericytes Proliferation % neutralization” value [1]?
A: Its value is 100%.

Q: And the “Pericytes Proliferation IC50” value [1]?
A: The value was 0.6 nM.

Q: What about the IC50 [2] of the same binder?
A: Its IC50 is 0.0554 mg/L.

Q: What about the EC50 [3] of the same binder?
A: Its EC50 is 0.11 mg/L.

Q: What about the koff [4] of the same binder?
A: Its koff is 0.000264 s⁻¹.

Q: What about the t½ [4] of the same binder?
A: The t½ was 0.733 h.

Q: What about the EC50 [5] of the same binder?
A: Its EC50 is 0.0415 mg/L.

Q: And the T½ [6]?
A: Its T½ is 1.9 h.

Q: What about the Kd [7] of the same binder?
A: The Kd was 0.021 nM.

Q: What about the Kd [8] of the same binder?
A: The Kd was 0.0782 nM.

B3: antibody 0064 (antibody, V domains shown)
VH: EVQLVESGGGLVQPGGSLRLSCAASGFTFSSYWMSWVRQAPGKGLEWVSTISDGGGTTSYADSVKGRFTISRDNSKNTLYLQMNSLRAEDTAVYSCAESGGATDYLFDYWGQGTLVTVSS
VL: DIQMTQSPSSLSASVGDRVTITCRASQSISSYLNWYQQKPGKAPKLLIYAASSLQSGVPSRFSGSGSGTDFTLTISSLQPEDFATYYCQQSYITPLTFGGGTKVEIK
notes: as for B1
Q: Which results are given for B3?
A: Balb-C3T3 Proliferation % neutralization [1]: 100%; Balb-C3T3 Proliferation IC50 [1]: 0.024 nM; Pericytes Migration % neutralization [1]: 100%; Pericytes Migration IC50 [1]: 0.14 nM; Pericytes Proliferation % neutralization [1]: 100%; Pericytes Proliferation IC50 [1]: 0.08 nM; IC50 [2]: 0.0343 mg/L; EC50 [3]: 0.00369 mg/L; koff [4]: 0.000135 s⁻¹; t½ [4]: 1.42 h; EC50 [5]: 0.00741 mg/L; T½ [6]: 1.9 h; Kd [7]: 0.021 nM; Kd [8]: 0.0769 nM
